The text below walks through data of patent US20180282373A1 (RESEARCH FOUNDATION FOR THE STATE UNIVERSITY OF NEW YORK, published 2018).

Experiment [1] deals with T1, purified recombinant full-length WDR5 (UniProt P61964 2-334). Put plainly: cell-based or functional assay.
Experiment [2] has as its target T1, purified recombinant full-length WDR5. Put plainly: ITC at 20 C, Win6mer (200 µM) titrated into full-length WDR5 (20 µM); 95% confidence interval 1.7-4.2 nM. As to the method:
(§1) In the present disclosure, we synthesized a six-residue peptidomimetic.
(§2) Isothermal titration calorimetry (ITC). […] ITC experiments were carried out at 20° C. using a VP-ITC micro-calorimeter (MicroCal). […] Reference power was set to 10 μCal/sec and stirring speed was set to 295 rpm. Data were integrated using NITPIC. SEDPHAT was used to fit the integrated data to a single-site heterogeneous association model, using simulated annealing and Maxquardt-Levenberg algorithms. Automatic confidence interval search with projection method was applied to estimate the error of the determined thermodynamic parameters. Confidence interval was set to 2σ (95%). ITC figure was generated using GUSSI.

The target is the same in experiment [3]. Put plainly: ITC, Kd compared with Table I. As for the experimental part: as §1, §2
For experiment [4] the target is unchanged. As to the kind of experiment: cell-based or functional assay. The source holds these as a separate data set.
Experiment [5] has the same target. As to the kind of experiment: GST pull-down with purified WDR5, Coomassie-stained gel.
The target in experiment [6] is endogenous WDR5 (MCF-7 cell extracts; T-REx HEK293 nuclear extracts) (human, UniProt P61964 2-334). Put plainly: anti-Flag co-immunoprecipitation from T-REx HEK293 cells, Western blot. As to the method:
Co-immunoprecipitation from mammalian cells. […] Following induction with doxycycline, nuclear extracts were prepared as described and incubated with anti-Flag M2 agarose beads (Sigma) for 3 h. Bound proteins were eluted with SDS sample buffer after extensive washing and analyzed by Western blotting.

B1: Win6mer, Ac-ARTEVY-NH2 (SEQ ID NO:8, N-terminus acetylated and C-terminus amidated) (peptide)
peptide: Ac-ARTEVY-NH2
notes: Synthesized by GenScript; also called 6-mer Win motif peptidomimetic
B1: in experiment [1], the “IC50, inhibition of MLL1 core complex methyltransferase activity, H3K4me0 substrate (scintillation proximity assay)” value was found to be 2300 nM; the “IC50, inhibition of MLL1 core complex methyltransferase activity, H3K4me1 substrate (scintillation proximity assay)” value came to 2200 nM; the “IC50, inhibition of SETd1A core complex methyltransferase activity, H3K4me0 substrate (scintillation proximity assay)” value was 3200 nM; the “IC50, inhibition of SETd1A core complex methyltransferase activity, H3K4me1 substrate (scintillation proximity assay)” value was 2900 nM. Moreover, in experiment [1], the “IC50, inhibition of SETd1A core complex methyltransferase activity, H3K4me2 substrate (scintillation proximity assay)” value came out at 2400 nM. Also, the Kd in experiment [2] came out at 2.9 nM. Moreover, the “fold increase in binding affinity over the best naturally occurring Win motif sequence” value in experiment [3] is around 18 fold. In experiment [4], the “IC50, inhibition of MLL1 core complex, 0.5 µM enzyme complex assayed” value was 300 nM; the “IC50, inhibition of MLL1 core complex, 1 µM enzyme complex assayed” value came to 800 nM; the “IC50, inhibition of MLL1 core complex, 1.8 µM enzyme complex assayed” value was 2200 nM; the “average IC50, inhibition of MLL1 core complex (2 µM of enzyme complex assayed)” value is 2200 nM. Also, the “average IC50, inhibition of SETd1A core complex (2 µM of enzyme complex assayed)” value in experiment [4] came to 2500 nM.

B2: GST-tagged SETd1B Win-SET domain, Setd1B(1727-1966), R1748A (enzyme)
chain: LSSAKKKKRDDGIREHVTGCAASEGFYTIDKKDKLRYLNSSRASTDEPPADTQGMSIPAQPHASTRAGSERRSEQRRLLSSFTGSCDSDLLKFNQLKFRKKKLKFCKSHIHDWGLFAMEPIAADEMVIEYVGQNIRQVIADMREKRYEDEGIGSSYMFRVDHDTIIDATKCGNFARFINHSCNPNCYAKVITVESQKKIVIYSKQHINVNEEITYDYKFPIEDVKIPCLCGSENCRGTLN
notes: also called SETd1B^R1748A; SETd1B Win motif mutant; not shown: GST tag of the pGST parallel vector, with its linker, at the N end
B2: the binding result in experiment [5] is given as “no binding (tested: 3 µM)”.

B3: Flag-tagged full-length human SETd1B, Win motif arginine to alanine mutant (enzyme)
chain: MENSHPPHHHHQQPPPQPGPSGERRNHHWRSYKLMIDPALKKGHHKLYRYDGQHFSLAMSSNRPVEIVEDPRVVGIWTKNKELELSVPKFKIDEFYVGPVPPKQVTFAKLNDNIRENFLRDMCKKYGEVEEVEILYNPKTKKHLGIAKVVFATVRGAKDAVQHLHSTSVMGNIIHVELDTKGETRMRFYELLVTGRYTPQTLPVGELDAVSPIVNETLQLSDALKRLKDGGLSAGCGSGSSSVTPNSGGTPFSQDTAYSSCRLDTPNSYGQGTPLTPRLGTPFSQDSSYSSRQPTPSYLFSQDPAVTFKARRHESKFTDAYNRRHEHHYVHNSPAVTAVAGATAAFRGSSDLPFGAVGGTGGSSGPPFKAQPQDSATFAHTPPPAQATPAPGFKSAFSPYQTPVAHFPPPPEEPTATAAFGARDSGEFRRAPAPPPLPPAEPLAKEKPGTPPGPPPPDTNSMELGGRPTFGWSPEPCDSPGTPTLESSPAGPEKPHDSLDSRIEMLLKEQRTKLLFLREPDSDTELQMEGSPISSSSSQLSPLAPFGTNSQPGFRGPTPPSSRPSSTGLEDISPTPLPDSDEDEELDLGLGPRPPPEPGPPDPAGLLSQTAEVALDLVGDRTPTSEKMDEGQQSSGEDMEISDDEMPSAPITSADCPKPMVVTPGAAAVAAPSVLAPTLPLPPPPGFPPLPPPPPPPPPQPGFPMPPPLPPPPPPPPPAHPAVTVPPPPLPAPPGVPPPPILPPLPPFPPGLFPVMQVDMSHVLGGQWGGMPMSFQMQTQVLSRLMTGQGACPYPPFMAAAAAAASAGLQFVNLPPYRGPFSLSNSGPGRGQHWPPLPKFDPSVPPPGYMPRQEDPHKATVDGVLLVVLKELKAIMKRDLNRKMVEVVAFRAFDEWWDKKERMAKASLTPVKSGEHKDEDRPKPKDRIASCLLESWGKGEGLGYEGLGLGIGLRGAIRLPSFKVKRKEPPDTTSSGDQKRLRPSTSVDEEDEESERERDRDMADTPCELAKRDPKGVGVRRRPARPLELDSGGEEDEKESLSASSSSSASSSSGSSTTSPSSSASDKEEEQESTEEEEEAEEEEEEEVPRSQLSSSSTSSTSDKDDDDDDSDDRDESENDDEDTALSEASEKDEGDSDEEETVSIVTSKAEATSSSESSESSEFESSSESSPSSSEDEEEVVAREEEEEEEEEEMVAEESMASAGPEDFEQDGEEAALAPGAPAVDSLGMEEEVDIETEAVAPEERPSMLDEPPLPVGVEEPADSREPPEEPGLSQEGAMLLSPEPPAKEVEARPPLSPERAPEHDLEVEPEPPMMLPLPLQPPLPPPRPPRPPSPPPEPETTDASHPSVPPEPLAEDHPPHTPGLCGSLAKSQSTETVPATPGGEPPLSGGSSGLSLSSPQVPGSPFSYPAPSPSLSSGGLPRTPGRDFSFTPTFSEPSGPLLLPVCPLPTGRRDERSGPLASPVLLETGLPLPLPLPLPLPLALPAVLRAQARAPTPLPPLLPAPLASCPPPMKRKPGRPRRSPPSMLSLDGPLVRPPAGAALGRELLLLPGQPQTPVFPSTHDPRTVTLDFRNAGIPAPPPPLPPQPPPPPPPPPVEPTKLPFKELDNQWPSEAIPPGPRGRDEVTEEYMELAKSRGPWRRPPKKRHEDLVPPAGSPELSPPQPLFRPRSEFEEMTILYDIWNGGIDEEDIRFLCVTYERLLQQDNGMDWLNDTLWVYHPSTSLSSAKKKKRDDGIREHVTGCAASEGFYTIDKKDKLRYLNSSRASTDEPPADTQGMSIPAQPHASTRAGSERRSEQRRLLSSFTGSCDSDLLKFNQLKFRKKKLKFCKSHIHDWGLFAMEPIAADEMVIEYVGQNIRQVIADMREKRYEDEGIGSSYMFRVDHDTIIDATKCGNFARFINHSCNPNCYAKVITVESQKKIVIYSKQHINVNEEITYDYKFPIEDVKIPCLCGSENCRGTLN
notes: mature; also called SETd1B Win motif mutant (full-length); not shown: Flag tag
B3: in experiment [6], the binding result is on record as “no binding”.
